From PMC5004290, “Mapping an epitope in EBNA‐1 that is recognized by monoclonal antibodies to EBNA‐1 that cross‐react with dsDNA” (Immunity, Inflammation and Disease, 2016)
No end group written: not given here. *: point of attachment. Biotin = O=C1N[C@H]2[C@H](CS[C@H]2CCCCC(=O)*)N1

T1: Peptide GL-15 of EBNA-1 (aa 552-566) (Epstein-Barr virus (strain B95-8) …)
T1 construct: EBNA-1 of Epstein Barr virus, aa 552-566; it is surmised from the streptavidin format of the peptide ELISA; source: synthetic peptide
T1 chain: GPLRESIVCYFMVFL

B1: IgG monoclonal antibody 3D4 to EBNA-1 (antibody, V domains shown)
VH: LQESGGGLVKPGGSLKLSCAASGFAFSSYDMSWVRQTPEKRLEWVATISSGGSYIYYPDSVKGRFTISRDNARNTLYLQMSSLRSEDTALYYCARPPPFYFDYWGQGTTLTVSS
VL: TQSPLSLPVSLGEQASISCRSSQSLVHSNGNTYLHWYLQKPGQSPKLLIYKVSNRFSGVPDRFSGSGSGTDFTLKISRLEAEDLGFYFCSQTTHVPWTFGGGTK
notes: gamma heavy chain, germline VH7183.14, JH2, 3 mutations; kappa light chain, germline bb1, JK1, 5 mutations; Mouse IgG1 kappa; also called MAb 3D4; source: hybridoma from an EBNA-1 injected mouse; IgG MAbs purified on protein G sepharose columns

How the values were obtained:
[1] = target: IgM monoclonal antibody 16D2 to EBNA-1 (mouse); test: ELISA; peptide inhibition ELISA; 16D2 (5 μg/ml) pre-incubated 1 h at 37°C with 0.1 to 100 μg/ml of peptide, then transferred to dsDNA coated plates, 2 h at 37°C
IgM monoclonal antibody 16D2 to EBNA-1 (mouse), sequence (heavy, as listed by the source): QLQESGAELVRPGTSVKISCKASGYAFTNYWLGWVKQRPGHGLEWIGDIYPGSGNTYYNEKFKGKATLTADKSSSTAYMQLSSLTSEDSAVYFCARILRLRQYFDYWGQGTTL

[2] = target: IgM monoclonal antibody 16D2 to EBNA-1 (mouse); test: ELISA; peptide inhibition ELISA; 16D2 (5 μg/ml) incubated with 0.1 μg/ml to 1 mg/ml of peptide, then transferred to EBNA-1 coated plates, 1 h at 37°C
[3] = target: T1, Peptide GL-15 of EBNA-1 (aa 552-566); test: ELISA; anti-peptide ELISA; biotinylated peptide (100 μg/ml), or mole equivalents of biotinylated PFM-15 and biotinylated EBNA-1, on streptavidin coated plates; 3D4 at 5 μg/ml in PBS, 0.1% BSA, 1 h at 37°C; conditions: both partners purified

Binder | percent inhibition of binding to dsDNA at 100 μg/ml of peptide [1] [%] | percent inhibition of binding to EBNA-1 at 100 μg/ml of peptide [2] [%] | binding result [3]
Biotin-PQPGPLRESIVCYFM [Peptide PFM-15 of EBNA-1 (aa 549-563)] | 60 | 70 | 
B1 |  |  | binds
